Assay results taken from US10144929B2, “Polypeptide inhibitors of Smad3 polypeptide activities” (Mayo Foundation for Medical Education and Research, priority 2016, dated 2018).

What was measured:
[1] = Liver enzymes and inflammatory cells in blood of saline or BLM mice; assay type: in vivo, C57BL/6 mice; conditions: 1 mg/kg daily from day 14; blood at days 0, 14, 28
Description: (§1) FIG. 12. C57BL/6 mice received intratracheal instillation of saline or bleomycin (BLM). On day 14, all animals began daily treatment with either vehicle (methocel/saline) or 1 mg/kg of TAT-SH3-2. Blood samples were obtained at days 0, 14, and 28 from the facial vein of unanesthetized animals and assessed for effect on the indicated liver enzymes and inflammatory cells. Quantification of lymphocytes, monocytes, and neutrophils were measured using a VetScan HM5 Analyzer. Serum levels (U/L, units per liter; g/dL, grams per deciliter) of alkaline phosphatase (ALP), alanine aminotransferase (ALT), and albumin were determined using a Piccolo Xpress Chemistry analyzer. Data are presented as mean+/−SEM of n=5.
as §1, with “C57BL/6” for “FIG. 12. C57BL/6”, “analyzer.” for “analyzer. Data are presented as mean+/−SEM of n=5.”

AKR-2B cells = test: Soft agar colony formation (anchorage-independent growth, AIG); assay type: cell-based; conditions: 1.5 μM polypeptide, TGFβ 10 ng/mL, seven days
Description: FIGS. 2A-C. TAT-SH3 inhibits Smad3-dependent responses. (A) AKR-2B cells were transiently transfected with a Smad3 (3TP), Smad2 (ARE), or Smad1/5/8 (BRE) reporter construct, and luciferase activity determined following 12 hours incubation in the absence (−) or presence (+) of the indicated ligand (5 ng/mL TGFβ; 10 ng/mL BMP4) or TAT-SNX9(SH3) fusion polypeptide (1.5 μM). Data represent the mean+/−SEM of three experiments. (B) RT-PCR analysis of Smad3 (PAI-1 and CTGF) and Smad2 (MMP2) responsive gene following 24 hour treatment of AKR-2B cells with the indicated concentration of TAT-SNX9(SH3) fusion polypeptide or 5 ng/mL TGFβ. Loading was verified by GAPDH expression. (C) Soft agar colony formation was performed following seven days growth in the presence (+) or absence (−) of TGFβ (10 ng/mL) or the indicated TAT-SNX9(SH3) fusion polypeptide (1.5 μM). […]
FIGS. 3A-E. Inhibition of Smad3 signaling by a defined region of the SH3 domain in SNX9. […] (B) Nuclear fractions were prepared and assessed as in FIG. 1B following transduction with the indicated TAT-SNX9(SH3) fusion polypeptide (Left). Quantitation (mean+/−sd) of nuclear pSmad2 or pSmad3 from 2 experiments (Right). (C) Immunofluorescence of nuclear Smad3 was determined as in FIG. 1C from 30 cells in each of two experiments in the absence (−) or presence (+) of 5 ng/mL TGFβ and the indicated TAT-SNX9(SH3) fusion polypeptide (1.5 μM). […]

[2] = test system: Normal human lung fibroblasts (NHLF) or lung fibroblasts from idiopathic pulmonary fibrosis (IPF) patients; test: Profibrotic responses in human lung fibroblasts (F-actin, Western, qPCR); assay type: cell-based; conditions: TGFβ 5 ng/mL 24 hours
Description: FIGS. 11A-C. TAT-SH3-2 inhibits profibrotic responses in human lung fibroblasts. (A) Normal human lung fibroblasts (NHLF) or lung fibroblasts from idiopathic pulmonary fibrosis (IPF) patients were transduced with the indicated TAT polypeptide. TGFβ (5 ng/mL) or SB431542 (10 μM) was then added for an additional 24 hours. Images were obtained on a LSM510 confocal microscope following F-actin labeling with phalloidin-TRITC and DAPI nuclei staining. Scale bar: 10 μm. (B) Western analysis for the indicated polypeptides (α-SMA, alpha smooth muscle actin; CTGF, connective tissue growth factor; and GAPDH, glyceraldehyde phosphate dehydrogenase) subsequent to TAT polypeptide transduction and 24 hour treatment in the absence (−) or presence (+) of TGFβ (5 ng/mL) or SB431542 (10 μM). (C) NHLF or IPF fibroblasts were treated as in (A), and qPCR was performed as described herein. Results represent mean±SEM from three independent experiments. *P<0.05, **P<0.005, *** P<0.001.
Normal human lung fibroblasts (NHLF) or lung fibroblasts from idiopathic pulmonary fibrosis (IPF) patients were transduced with the indicated TAT polypeptide. TGFβ (5 ng/mL) or SB431542 (10 μM) was then added for an additional 24 hours. Images were obtained on a LSM510 confocal microscope following F-actin labeling with phalloidin-TRITC and DAPI nuclei staining. […]

TAT-SH3-2: TAT-SNX9(SH3) fusion polypeptide having SNX9 amino acids 21-51 (31 mer) (TVNEGEIITITNPDVGGGWLEGRNIKGERGL; left off: small tags and cut ends)
inflammatory cell recruitment (lymphocytes, monocytes, neutrophils) [1]: no demonstrable effect | murine liver enzymes (ALP, ALT, albumin) [1]: no demonstrable effect | TGFβ-stimulated anchorage-independent growth in soft agar (AIG) (AKR-2B cells): prevented | profibrotic responses in human lung fibroblasts [2]: inhibited profibrotic responses
